Values belong to the substance of their own block, whether it stands above or below them.
Experiments:
"B4-rsCD4" interaction = biological target: T1, "B4-rsCD4" interaction (Homo sapiens, UniProt P01730); test: ELISA inhibition assay with CD4 peptides (B4); type: binding; settings: B4 10 µg/mL, negative = enhancement; for % inhibition of "B4-rsCD4" interaction, Conc 3: peptide 16.7 µg/mL; for % inhibition of "B4-rsCD4" interaction, Conc 2: peptide 167 µg/mL; for % inhibition of "B4-rsCD4" interaction, Conc 1: peptide 1.67 mg/mL
T1 construct: purchased American Bio-Technologies, Inc. Cambridge, MA
Experimental: (§1) ELISA Inhibition Assays. […] The preincubated sample and peptide mixture was used directly in the standard rsCD4 ELISA procedure described herein above. Percent inhibition was calculated relative to the appropriate identically diluted monoclonal antibody which was preincubated in the absence of peptide. rsCD4-induced inhibition of antibody binding in the rsCD4 ELISA was similarly measured by preincubating diluted samples, at an endpoint rsCD4 binding dilution, with the competing rsCD4 at the indicated concentration.
(§2) The signal generated at endpoint concentration (e.g. 10 µg/mL for B4 and 20 µg/mL for M2) in an rsCD4 ELISA was employed as a positive control for the competitive peptide binding studies.
Table 5 depicts per cent inhibition results obtained in the rsCD4 ELISA where designed CD4 peptides were serially diluted and individually incubated with 0.1 mL of B4 at 10 µg/mL prior to the binding of B4 to the solid phase-bound rsCD4. Peptides were employed for competitive inhibition at concentrations of 1.67 mg/mL, 167 µg/mL and 16.7 µg/mL (conc 1, conc 2, and conc 3, respectively). […] Enhancement is expressed by negative values for inhibition.

"M2-rsCD4" interaction = biological target: T2, "M2-rsCD4" interaction (Homo sapiens, UniProt P01730); test: ELISA inhibition assay with CD4 peptides (M2); type: binding; settings: M2 20 µg/mL, negative = enhancement; for % inhibition of "M2-rsCD4" interaction, Conc 3: peptide 16.7 µg/mL; for % inhibition of "M2-rsCD4" interaction, Conc 2: peptide 167 µg/mL; for % inhibition of "M2-rsCD4" interaction, Conc 1: peptide 1.67 mg/mL
T2 construct: purchased American Bio-Technologies, Inc. Cambridge, MA
Experimental: as §1, §2
Table 6 depicts the per cent inhibition results obtained in the rsCD4 ELISA where designed CD4 peptides were serially diluted as in Table 5 and were individually incubated with 0.1 mL of M2 at 20 µg/mL prior to binding M2 to the solid phase-bound rsCD4.

[1] = biological target: CD4 on the surface of CD4-expressing cells (host cell antigen complex comprising CD4) (human); test: HPB-ALL cells pre-incubated with PBS, then gp120-FITC 1:200
monoclonal antibody B4 [2] = test: competition rsCD4 ELISA, B4 10 µg/mL, peptide 167 µg/mL; negative value = enhancement
monoclonal antibody B4 [3] = test: competition rsCD4 ELISA, B4 10 µg/mL, peptide 1.67 mg/mL; negative value = enhancement
monoclonal antibody B4 [4] = test: competition rsCD4 ELISA, B4 10 µg/mL, peptide 16.7 µg/mL; negative value = enhancement
monoclonal antibody B4 [5] = test: competition rsCD4 ELISA, B4 10 µg/mL, peptide 167 µg/mL
monoclonal antibody B4 [6] = test: competition rsCD4 ELISA, B4 10 µg/mL, peptide 1.67 mg/mL
monoclonal antibody B4 [7] = test: competition rsCD4 ELISA, B4 10 µg/mL, peptide 16.7 µg/mL
[8] = biological target: gp120 of HIV-1 primary field isolate DH-12 (clade B); test: cell-based or functional assay
[9] = biological target: gp120 of HIV-1 primary isolate 23135 (clade B); test: cell-based or functional assay
[10] = biological target: gp120 of HIV-1 primary isolate BR014 (clade B); test: cell-based or functional assay
monoclonal antibody B4 [11] = test: competition ELISA: soluble rsCD4 preincubated with B4 2 µg/mL; solid-phase rsCD4
monoclonal antibody B4 [12] = test: ELISA inhibition: soluble rsCD4 preincubated with B4 2 µg/mL; wells coated with rsCD4
monoclonal antibody B4 [13] = test: competition ELISA: soluble rsCD4 5 µg/mL preincubated with B4 2 µg/mL; solid-phase rsCD4
monoclonal antibody B4 [14] = test: competition ELISA: soluble rsCD4 25 µg/mL preincubated with B4 2 µg/mL; solid-phase rsCD4
monoclonal antibody B4 [15] = test: competition ELISA: soluble rsCD4 0.2 µg/mL preincubated with B4 2 µg/mL; solid-phase rsCD4
monoclonal antibody B4 [16] = test: competition ELISA: soluble rsCD4 1.0 µg/mL preincubated with B4 2 µg/mL; solid-phase rsCD4
monoclonal antibody B4 [17] = test: competition ELISA: soluble rsCD4 0.04 µg/mL preincubated with B4 2 µg/mL; solid-phase rsCD4
monoclonal antibody B4 [18] = test: competition ELISA: soluble rsCD4 0.008 µg/mL preincubated with B4 2 µg/mL; solid-phase rsCD4
monoclonal antibody B4 [19] = test: soluble rsCD4 5 µg/mL preincubated with biotinylated B4 0.71 µg/mL, then HPB-ALL cells; no inhibition
monoclonal antibody B4 [20] = test: soluble rsCD4 50 µg/mL preincubated with biotinylated B4 0.71 µg/mL, then HPB-ALL cells; no inhibition
monoclonal antibody B4 [21] = test: soluble rsCD4 0.5 µg/mL preincubated with biotinylated B4 0.71 µg/mL, then HPB-ALL cells; no inhibition
monoclonal antibody B4 [22] = test: soluble rsCD4 0.05 µg/mL preincubated with biotinylated B4 0.71 µg/mL, then HPB-ALL cells; no inhibition
monoclonal antibody B4 [23] = test: soluble rsCD4 0.005 µg/mL preincubated with biotinylated B4 0.71 µg/mL, then HPB-ALL cells; no inhibition
monoclonal antibody B4 [24] = test: ELISA inhibition: soluble rsCD4 preincubated with B4 0.1 µg/mL; wells coated with rsCD4/CC-CKR5-D3 (p2047a)

Substance: CD4 (154-165) [1768a]
% inhibition of "B4-rsCD4" interaction, Conc 3 ("B4-rsCD4" interaction): 6% | % inhibition of "B4-rsCD4" interaction, Conc 2 ("B4-rsCD4" interaction): 37% | % inhibition of "B4-rsCD4" interaction, Conc 1 ("B4-rsCD4" interaction): 82% | % inhibition of "M2-rsCD4" interaction, Conc 3 ("M2-rsCD4" interaction): 19% | % inhibition of "M2-rsCD4" interaction, Conc 2 ("M2-rsCD4" interaction): 36% | % inhibition of "M2-rsCD4" interaction, Conc 1 ("M2-rsCD4" interaction): 86%

Substance: HIV-1 gp120 (ligand)
% of cells stained by gp120-FITC [1]: > 90%

Substance: p1768a CD4(154-165) (peptide)
% inhibition of B4-rsCD4 interaction (monoclonal antibody B4 [5]): 37% | % inhibition of B4-rsCD4 interaction (monoclonal antibody B4 [6]): 82% | % inhibition of B4-rsCD4 interaction (monoclonal antibody B4 [7]): 6%

Substance: p1768b HBVTh-GG-CD4(154-165) (peptide)
% inhibition of B4-rsCD4 interaction (monoclonal antibody B4 [5]): 44% | % inhibition of B4-rsCD4 interaction (monoclonal antibody B4 [6]): 76% | % inhibition of B4-rsCD4 interaction (monoclonal antibody B4 [7]): 11%

Substance: p1813b HBVTh-GG-CD4(79-88) (peptide)
% inhibition of B4-rsCD4 interaction (monoclonal antibody B4 [5]): 69% | % inhibition of B4-rsCD4 interaction (monoclonal antibody B4 [6]): 93% | % inhibition of B4-rsCD4 interaction (monoclonal antibody B4 [7]): 32%

Substance: p1816d CD4(1-20) (peptide)
% inhibition of B4-rsCD4 interaction (monoclonal antibody B4 [5]): 53% | % inhibition of B4-rsCD4 interaction (monoclonal antibody B4 [6]): 64% | % inhibition of B4-rsCD4 interaction (monoclonal antibody B4 [7]): 29%

Substance: recombinant human monoclonal antibody IgG1 b12
HIV-1 DH-12 (chimp PBL-grown), PBMC Infection Reduction Assay [8]: 1.38 logs killed | 50% Inhbt., HIV-1 primary isolate 23135, MT-2 Microplaque Neutralization Assay [9]: 12.8 µg/mL | 50% Inhbt., HIV-1 primary isolate BR014, MT-2 Microplaque Neutralization Assay [10]: > 50 µg/mL

Substance: recombinant soluble CD4 (rsCD4) (receptor)
IC50 (monoclonal antibody B4 [11]): 1 µg/mL | IC50 (monoclonal antibody B4 [12]): 0.72 µg/mL | % Inhibition (monoclonal antibody B4 [13]): 91% | A492 nm (monoclonal antibody B4 [13]): 0.061 A492 | % Inhibition (monoclonal antibody B4 [14]): 91.9% | A492 nm (monoclonal antibody B4 [14]): 0.055 A492 | % Inhibition (monoclonal antibody B4 [15]): 6.7% | A492 nm (monoclonal antibody B4 [15]): 0.633 A492 | % Inhibition (monoclonal antibody B4 [16]): 49.9% | A492 nm (monoclonal antibody B4 [16]): 0.34 A492 | % Inhibition (monoclonal antibody B4 [17]): 6.1% | A492 nm (monoclonal antibody B4 [17]): 0.637 A492 | % Inhibition (monoclonal antibody B4 [18]): -4.7% | A492 nm (monoclonal antibody B4 [18]): 0.711 A492 | % Positive cells (biotinylated B4 staining of HPB-ALL) (monoclonal antibody B4 [19]): > 95% | staining (biotinylated B4 on HPB-ALL) (monoclonal antibody B4 [19]): 3 + | % Positive cells (biotinylated B4 staining of HPB-ALL) (monoclonal antibody B4 [20]): > 95% | staining (biotinylated B4 on HPB-ALL) (monoclonal antibody B4 [20]): 3 + | % Positive cells (biotinylated B4 staining of HPB-ALL) (monoclonal antibody B4 [21]): > 95% | staining (biotinylated B4 on HPB-ALL) (monoclonal antibody B4 [21]): 3 + | % Positive cells (biotinylated B4 staining of HPB-ALL) (monoclonal antibody B4 [22]): > 95% | staining (biotinylated B4 on HPB-ALL) (monoclonal antibody B4 [22]): 3 + | % Positive cells (biotinylated B4 staining of HPB-ALL) (monoclonal antibody B4 [23]): > 95% | staining (biotinylated B4 on HPB-ALL) (monoclonal antibody B4 [23]): 3 + | IC50 (monoclonal antibody B4 [24]): 0.047 µg/mL

Second part, the substance after the results:

% inhibition of "B4-rsCD4" interaction, Conc 3 ("B4-rsCD4" interaction): 29% | % inhibition of "B4-rsCD4" interaction, Conc 2 ("B4-rsCD4" interaction): 53% | % inhibition of "B4-rsCD4" interaction, Conc 1 ("B4-rsCD4" interaction): 64% | % inhibition of "M2-rsCD4" interaction, Conc 3 ("M2-rsCD4" interaction): 17% | % inhibition of "M2-rsCD4" interaction, Conc 2 ("M2-rsCD4" interaction): 60% | % inhibition of "M2-rsCD4" interaction, Conc 1 ("M2-rsCD4" interaction): 74%
Substance: CD4 (1-20) [1816d]

% inhibition of "B4-rsCD4" interaction, Conc 3 ("B4-rsCD4" interaction): -108% | % inhibition of "B4-rsCD4" interaction, Conc 2 ("B4-rsCD4" interaction): -207% | % inhibition of "B4-rsCD4" interaction, Conc 1 ("B4-rsCD4" interaction): -215% | % inhibition of "M2-rsCD4" interaction, Conc 3 ("M2-rsCD4" interaction): -141% | % inhibition of "M2-rsCD4" interaction, Conc 2 ("M2-rsCD4" interaction): -251% | % inhibition of "M2-rsCD4" interaction, Conc 1 ("M2-rsCD4" interaction): -261%
Substance: CD4 (36-47) [1624a]

% inhibition of "B4-rsCD4" interaction, Conc 3 ("B4-rsCD4" interaction): 19% | % inhibition of "B4-rsCD4" interaction, Conc 2 ("B4-rsCD4" interaction): 30% | % inhibition of "B4-rsCD4" interaction, Conc 1 ("B4-rsCD4" interaction): 38% | % inhibition of "M2-rsCD4" interaction, Conc 3 ("M2-rsCD4" interaction): 17% | % inhibition of "M2-rsCD4" interaction, Conc 2 ("M2-rsCD4" interaction): 43% | % inhibition of "M2-rsCD4" interaction, Conc 1 ("M2-rsCD4" interaction): 56%
Substance: CD4 (297-351*) [1868a]

% inhibition of B4-rsCD4 interaction (monoclonal antibody B4 [2]): -207% | % inhibition of B4-rsCD4 interaction (monoclonal antibody B4 [3]): -215% | % inhibition of B4-rsCD4 interaction (monoclonal antibody B4 [4]): -108%
Substance: p1624a (C)CD4(36-47)(C), cyclic (peptide)

% inhibition of B4-rsCD4 interaction (monoclonal antibody B4 [5]): 30% | % inhibition of B4-rsCD4 interaction (monoclonal antibody B4 [6]): 38% | % inhibition of B4-rsCD4 interaction (monoclonal antibody B4 [7]): 19%
Substance: p1868a CD4(297-351), cyclic (peptide)

Reference: EP0910659B1, “ANTIBODIES AGAINST A COMPLEX OF CD4 AND A CHEMOKINE RECEPTOR DOMAIN, AND THEIR USE AGAINST HIV INFECTIONS” (United Biomedical, Inc., priority 1996, dated 1997)
